Source: PMC3119452 (Structure (London, England : 1993), 2010)
“And” between values parts separate entries of the source, which are not always exact repeats. Identical values can stand only once. Like-named read-outs stand apart in the source and are kept apart here.

Tests used:
[1] = target: full-length HYL1 (Arabidopsis HYPONASTIC LEAVES1) (Arabidopsis) (UniProt O04492); experiment: SEC
[2] = target: full-length HYL1 (Arabidopsis HYPONASTIC LEAVES1) (Arabidopsis) (UniProt O04492); experiment: SEC; remark: listed apart in the source
GST-HYL1 fusion protein = target: T1, GST-HYL1 fusion protein (Arabidopsis, UniProt O04492 1-419); experiment: pull-down
T1 sequence (looked up): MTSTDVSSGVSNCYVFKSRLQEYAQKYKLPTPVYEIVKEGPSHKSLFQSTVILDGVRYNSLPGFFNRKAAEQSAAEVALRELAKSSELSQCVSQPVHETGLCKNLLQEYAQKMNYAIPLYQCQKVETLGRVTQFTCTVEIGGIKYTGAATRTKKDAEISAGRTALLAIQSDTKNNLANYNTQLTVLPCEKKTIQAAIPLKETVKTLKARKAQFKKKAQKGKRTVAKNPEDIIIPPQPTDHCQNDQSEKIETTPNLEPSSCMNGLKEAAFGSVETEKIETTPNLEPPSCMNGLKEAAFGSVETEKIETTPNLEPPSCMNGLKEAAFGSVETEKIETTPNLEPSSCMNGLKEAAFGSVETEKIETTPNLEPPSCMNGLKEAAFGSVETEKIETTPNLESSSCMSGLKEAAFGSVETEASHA

crystal structure = target: the molecule itself; experiment: crystal structure

## full-length HYL1 (Arabidopsis HYPONASTIC LEAVES1) (from UniProt O04492 1-419) (natural protein)
[1]
  percent of the monomer peak shifted to the 110 kDa peak: 90%
  stoichiometry N: 2
[2]
  stoichiometry N: 8 and 10

B1: HR2 (residues 101-171) used in the pull-down (domain or fragment, Arabidopsis, UniProt O04492 101-171, looked up)
chain: LCKNLLQEYAQKMNYAIPLYQCQKVETLGRVTQFTCTVEIGGIKYTGAATRTKKDAEISAGRTALLAIQSD
GST-HYL1 fusion protein
  binding result: binds

B2: HYL1 dsRBD2 (HR2; residues 100-172) (domain or fragment, Arabidopsis, UniProt O04492 100-172, looked up)
chain: GLCKNLLQEYAQKMNYAIPLYQCQKVETLGRVTQFTCTVEIGGIKYTGAATRTKKDAEISAGRTALLAIQSDT
Crystal structure
  binding result: binds

B3: HYL1 dsRBD1+2 (HR1+2; residues 15-172) (domain or fragment, Arabidopsis, UniProt O04492 15-172, looked up)
chain: VFKSRLQEYAQKYKLPTPVYEIVKEGPSHKSLFQSTVILDGVRYNSLPGFFNRKAAEQSAAEVALRELAKSSELSQCVSQPVHETGLCKNLLQEYAQKMNYAIPLYQCQKVETLGRVTQFTCTVEIGGIKYTGAATRTKKDAEISAGRTALLAIQSDT
GST-HYL1 fusion protein
  binding result: binds
